Data reported in paper PMC6105678.

Tests used:
[1] = molecular target: Bonsai gelsolin, fragment 28–161 of gelsolin (human); assay: SAXS; 28–161 at 8 mg/ml, 1 mM EGTA, 30 °C
[2] = molecular target: Bonsai gelsolin, fragment 28–161 of gelsolin (human); assay: SAXS; 28–161 at 8 mg/ml, 1 mM EGTA, 40 °C
[3] = molecular target: Bonsai gelsolin, fragment 28–161 of gelsolin (human); assay: SAXS; 28–161 at 8 mg/ml, 1 mM free Ca2+, 40 °C
[4] = molecular target: Bonsai gelsolin, fragment 28–161 of gelsolin (human); assay: SEC; 8 mg/ml in EGTA buffer heated at 30 °C for 30 min, cooled to room temperature; 200 μl injected, column at room temperature

stoichiometry N [1]: 2
stoichiometry N [2]: 4
stoichiometry N [3]: 2
stoichiometry N [4]: 2
Substance: Bonsai gelsolin, fragment 28–161 of gelsolin (domain or fragment)
